Data: US20150087577A1 (POLYPHOR, published 2015)
Bridges are numbered along the chain shown (N, C = ends). [ ]: non-standard residue; d: D form. Phe(4-F) = N[C@@H](Cc1ccc(F)cc1)C(=O)O; 2Nal = N[C@@H](Cc1ccc2ccccc2c1)C(=O)O; Cit = NC(=O)NCCC[C@H](N)C(=O)O

B1: Example 93 (peptide)
peptide: cyclo(YRDCRG[dP]RR[2Nal]CYQK[dP]P)
modifications: disulfide 4-11
SMILES: N=C(N)NCCC[C@@H]1NC(=O)[C@@H]2CSSC[C@H](NC(=O)[C@H](Cc3ccc4ccccc4c3)NC(=O)[C@H](CCCNC(=N)N)NC(=O)[C@H](CCCNC(=N)N)NC(=O)[C@H]3CCCN3C(=O)CNC1=O)C(=O)N[C@@H](Cc1ccc(O)cc1)C(=O)N[C@@H](CCC(N)=O)C(=O)N[C@@H](CCCCN)C(=O)N1CCC[C@@H]1C(=O)N1CCC[C@H]1C(=O)N[C@@H](Cc1ccc(O)cc1)C(=O)N[C@@H](CCCNC(=N)N)C(=O)N[C@@H](CC(=O)O)C(=O)N2
B2: Example 98 (peptide)
peptide: cyclo(YRVCRG[dP]RR[2Nal]CYQK[dP]P)
modifications: disulfide 4-11
SMILES: CC(C)[C@@H]1NC(=O)[C@H](CCCNC(=N)N)NC(=O)[C@H](Cc2ccc(O)cc2)NC(=O)[C@@H]2CCCN2C(=O)[C@H]2CCCN2C(=O)[C@H](CCCCN)NC(=O)[C@H](CCC(N)=O)NC(=O)[C@H](Cc2ccc(O)cc2)NC(=O)[C@@H]2CSSC[C@H](NC1=O)C(=O)N[C@@H](CCCNC(=N)N)C(=O)NCC(=O)N1CCC[C@@H]1C(=O)N[C@@H](CCCNC(=N)N)C(=O)N[C@@H](CCCNC(=N)N)C(=O)N[C@@H](Cc1ccc3ccccc3c1)C(=O)N2
B3: Example 96 (peptide)
peptide: cyclo(YRSCRG[dP]RR[2Nal]CYQK[dP]P)
modifications: disulfide 4-11
SMILES: N=C(N)NCCC[C@@H]1NC(=O)[C@@H]2CSSC[C@H](NC(=O)[C@H](Cc3ccc4ccccc4c3)NC(=O)[C@H](CCCNC(=N)N)NC(=O)[C@H](CCCNC(=N)N)NC(=O)[C@H]3CCCN3C(=O)CNC1=O)C(=O)N[C@@H](Cc1ccc(O)cc1)C(=O)N[C@@H](CCC(N)=O)C(=O)N[C@@H](CCCCN)C(=O)N1CCC[C@@H]1C(=O)N1CCC[C@H]1C(=O)N[C@@H](Cc1ccc(O)cc1)C(=O)N[C@@H](CCCNC(=N)N)C(=O)N[C@@H](CO)C(=O)N2
B4: Example 90 (peptide)
peptide: cyclo(VR[Cit]CRG[dP]RR[2Nal]CYQK[dP]P)
modifications: disulfide 4-11
SMILES: CC(C)[C@@H]1NC(=O)[C@@H]2CCCN2C(=O)[C@H]2CCCN2C(=O)[C@H](CCCCN)NC(=O)[C@H](CCC(N)=O)NC(=O)[C@H](Cc2ccc(O)cc2)NC(=O)[C@@H]2CSSC[C@H](NC(=O)[C@H](CCCNC(N)=O)NC(=O)[C@H](CCCNC(=N)N)NC1=O)C(=O)N[C@@H](CCCNC(=N)N)C(=O)NCC(=O)N1CCC[C@@H]1C(=O)N[C@@H](CCCNC(=N)N)C(=O)N[C@@H](CCCNC(=N)N)C(=O)N[C@@H](Cc1ccc3ccccc3c1)C(=O)N2
B5: Example 92 (peptide)
peptide: cyclo(YRNCRG[dP]RR[2Nal]CYQK[dP]P)
modifications: disulfide 4-11
SMILES: N=C(N)NCCC[C@@H]1NC(=O)[C@@H]2CSSC[C@H](NC(=O)[C@H](Cc3ccc4ccccc4c3)NC(=O)[C@H](CCCNC(=N)N)NC(=O)[C@H](CCCNC(=N)N)NC(=O)[C@H]3CCCN3C(=O)CNC1=O)C(=O)N[C@@H](Cc1ccc(O)cc1)C(=O)N[C@@H](CCC(N)=O)C(=O)N[C@@H](CCCCN)C(=O)N1CCC[C@@H]1C(=O)N1CCC[C@H]1C(=O)N[C@@H](Cc1ccc(O)cc1)C(=O)N[C@@H](CCCNC(=N)N)C(=O)N[C@@H](CC(N)=O)C(=O)N2
B6: Example 91 (peptide)
peptide: cyclo(MR[Cit]CRG[dP]RR[2Nal]CYQK[dP]P)
modifications: disulfide 4-11
SMILES: CSCC[C@@H]1NC(=O)[C@@H]2CCCN2C(=O)[C@H]2CCCN2C(=O)[C@H](CCCCN)NC(=O)[C@H](CCC(N)=O)NC(=O)[C@H](Cc2ccc(O)cc2)NC(=O)[C@@H]2CSSC[C@H](NC(=O)[C@H](CCCNC(N)=O)NC(=O)[C@H](CCCNC(=N)N)NC1=O)C(=O)N[C@@H](CCCNC(=N)N)C(=O)NCC(=O)N1CCC[C@@H]1C(=O)N[C@@H](CCCNC(=N)N)C(=O)N[C@@H](CCCNC(=N)N)C(=O)N[C@@H](Cc1ccc3ccccc3c1)C(=O)N2
B7: Example 95 (peptide)
peptide: cyclo(YRACRG[dP]RR[2Nal]CYQK[dP]P)
modifications: disulfide 4-11
SMILES: C[C@@H]1NC(=O)[C@H](CCCNC(=N)N)NC(=O)[C@H](Cc2ccc(O)cc2)NC(=O)[C@@H]2CCCN2C(=O)[C@H]2CCCN2C(=O)[C@H](CCCCN)NC(=O)[C@H](CCC(N)=O)NC(=O)[C@H](Cc2ccc(O)cc2)NC(=O)[C@@H]2CSSC[C@H](NC1=O)C(=O)N[C@@H](CCCNC(=N)N)C(=O)NCC(=O)N1CCC[C@@H]1C(=O)N[C@@H](CCCNC(=N)N)C(=O)N[C@@H](CCCNC(=N)N)C(=O)N[C@@H](Cc1ccc3ccccc3c1)C(=O)N2
B8: Example 102 (peptide)
peptide: cyclo(YRSCRG[dP]RRWCY[Cit]D[dP]P)
modifications: disulfide 4-11
SMILES: N=C(N)NCCC[C@@H]1NC(=O)[C@@H]2CSSC[C@H](NC(=O)[C@H](Cc3c[nH]c4ccccc34)NC(=O)[C@H](CCCNC(=N)N)NC(=O)[C@H](CCCNC(=N)N)NC(=O)[C@H]3CCCN3C(=O)CNC1=O)C(=O)N[C@@H](Cc1ccc(O)cc1)C(=O)N[C@@H](CCCNC(N)=O)C(=O)N[C@@H](CC(=O)O)C(=O)N1CCC[C@@H]1C(=O)N1CCC[C@H]1C(=O)N[C@@H](Cc1ccc(O)cc1)C(=O)N[C@@H](CCCNC(=N)N)C(=O)N[C@@H](CO)C(=O)N2
B9: Example 20 (peptide)
peptide: cyclo(YR[Cit]FR[Cit]PRR[2Nal]VY[Cit]K[dP]P)
SMILES: CC(C)[C@@H]1NC(=O)[C@H](Cc2ccc3ccccc3c2)NC(=O)[C@H](CCCNC(=N)N)NC(=O)[C@H](CCCNC(=N)N)NC(=O)[C@@H]2CCCN2C(=O)[C@H](CCCNC(N)=O)NC(=O)[C@H](CCCNC(=N)N)NC(=O)[C@H](Cc2ccccc2)NC(=O)[C@H](CCCNC(N)=O)NC(=O)[C@H](CCCNC(=N)N)NC(=O)[C@H](Cc2ccc(O)cc2)NC(=O)[C@@H]2CCCN2C(=O)[C@H]2CCCN2C(=O)[C@H](CCCCN)NC(=O)[C@H](CCCNC(N)=O)NC(=O)[C@H](Cc2ccc(O)cc2)NC1=O
B10: Example 99 (peptide)
peptide: cyclo(YR[Phe(4-F)]CRG[dP]RR[2Nal]CYQK[dP]P)
modifications: disulfide 4-11
SMILES: N=C(N)NCCC[C@@H]1NC(=O)[C@@H]2CSSC[C@H](NC(=O)[C@H](Cc3ccc4ccccc4c3)NC(=O)[C@H](CCCNC(=N)N)NC(=O)[C@H](CCCNC(=N)N)NC(=O)[C@H]3CCCN3C(=O)CNC1=O)C(=O)N[C@@H](Cc1ccc(O)cc1)C(=O)N[C@@H](CCC(N)=O)C(=O)N[C@@H](CCCCN)C(=O)N1CCC[C@@H]1C(=O)N1CCC[C@H]1C(=O)N[C@@H](Cc1ccc(O)cc1)C(=O)N[C@@H](CCCNC(=N)N)C(=O)N[C@@H](Cc1ccc(F)cc1)C(=O)N2
B11: Example 97 (peptide)
peptide: cyclo(YRLCRG[dP]RR[2Nal]CYQK[dP]P)
modifications: disulfide 4-11
SMILES: CC(C)C[C@@H]1NC(=O)[C@H](CCCNC(=N)N)NC(=O)[C@H](Cc2ccc(O)cc2)NC(=O)[C@@H]2CCCN2C(=O)[C@H]2CCCN2C(=O)[C@H](CCCCN)NC(=O)[C@H](CCC(N)=O)NC(=O)[C@H](Cc2ccc(O)cc2)NC(=O)[C@@H]2CSSC[C@H](NC1=O)C(=O)N[C@@H](CCCNC(=N)N)C(=O)NCC(=O)N1CCC[C@@H]1C(=O)N[C@@H](CCCNC(=N)N)C(=O)N[C@@H](CCCNC(=N)N)C(=O)N[C@@H](Cc1ccc3ccccc3c1)C(=O)N2
B12: Example 101 (peptide)
peptide: cyclo(YR[Cit]CSG[dP]RR[2Nal]CYQK[dP]P)
modifications: disulfide 4-11
SMILES: N=C(N)NCCC[C@@H]1NC(=O)[C@H](CCCNC(=N)N)NC(=O)[C@H]2CCCN2C(=O)CNC(=O)[C@H](CO)NC(=O)[C@@H]2CSSC[C@H](NC(=O)[C@H](Cc3ccc4ccccc4c3)NC1=O)C(=O)N[C@@H](Cc1ccc(O)cc1)C(=O)N[C@@H](CCC(N)=O)C(=O)N[C@@H](CCCCN)C(=O)N1CCC[C@@H]1C(=O)N1CCC[C@H]1C(=O)N[C@@H](Cc1ccc(O)cc1)C(=O)N[C@@H](CCCNC(=N)N)C(=O)N[C@@H](CCCNC(N)=O)C(=O)N2
B13: Example 94 (peptide)
peptide: cyclo(YRKCRG[dP]RR[2Nal]CYQK[dP]P)
modifications: disulfide 4-11
SMILES: N=C(N)NCCC[C@@H]1NC(=O)[C@@H]2CSSC[C@H](NC(=O)[C@H](Cc3ccc4ccccc4c3)NC(=O)[C@H](CCCNC(=N)N)NC(=O)[C@H](CCCNC(=N)N)NC(=O)[C@H]3CCCN3C(=O)CNC1=O)C(=O)N[C@@H](Cc1ccc(O)cc1)C(=O)N[C@@H](CCC(N)=O)C(=O)N[C@@H](CCCCN)C(=O)N1CCC[C@@H]1C(=O)N1CCC[C@H]1C(=O)N[C@@H](Cc1ccc(O)cc1)C(=O)N[C@@H](CCCNC(=N)N)C(=O)N[C@@H](CCCCN)C(=O)N2
B14: Example 100 (peptide)
peptide: cyclo(YRMCRG[dP]RR[2Nal]CYQK[dP]P)
modifications: disulfide 4-11
SMILES: CSCC[C@@H]1NC(=O)[C@H](CCCNC(=N)N)NC(=O)[C@H](Cc2ccc(O)cc2)NC(=O)[C@@H]2CCCN2C(=O)[C@H]2CCCN2C(=O)[C@H](CCCCN)NC(=O)[C@H](CCC(N)=O)NC(=O)[C@H](Cc2ccc(O)cc2)NC(=O)[C@@H]2CSSC[C@H](NC1=O)C(=O)N[C@@H](CCCNC(=N)N)C(=O)NCC(=O)N1CCC[C@@H]1C(=O)N[C@@H](CCCNC(=N)N)C(=O)N[C@@H](CCCNC(=N)N)C(=O)N[C@@H](Cc1ccc3ccccc3c1)C(=O)N2

Molecular target: human CXCR4 (human, UniProt P61073 1-352)
Experiment: cell-based or functional assay

human CXCR4, sequence (P61073 whole entry): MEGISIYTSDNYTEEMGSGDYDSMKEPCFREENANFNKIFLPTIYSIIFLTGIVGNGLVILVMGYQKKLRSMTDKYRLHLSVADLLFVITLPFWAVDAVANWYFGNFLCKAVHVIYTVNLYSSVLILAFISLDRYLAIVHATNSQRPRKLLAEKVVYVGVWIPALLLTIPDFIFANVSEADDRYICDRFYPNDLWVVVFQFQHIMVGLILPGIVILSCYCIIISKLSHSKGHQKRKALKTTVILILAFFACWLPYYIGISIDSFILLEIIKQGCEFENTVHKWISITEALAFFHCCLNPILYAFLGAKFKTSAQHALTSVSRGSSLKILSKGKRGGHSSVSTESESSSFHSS

| Binder | IC50 (nM) Ca2+ assay (method 2) [nM] | IC50 (nM) Ca2+ assay (method 1) [nM] |
| --- | --- | --- |
| B1 | 4.3 | – |
| B2 | 3.9 | – |
| B3 | 3 | – |
| B4 | 19.5 | – |
| B5 | 1.1 | – |
| B6 | 2.1 | – |
| B7 | 2.9 | – |
| B8 | 8 | – |
| B9 | – | 3730 |
| B10 | 4.2 | – |
| B11 | 4.3 | – |
| B12 | 1.28 | – |
| B13 | 2.5 | – |
| B14 | 7 | – |
